Here are results for one molecule from PMC8318589, “Structure and analysis of nanobody binding to the human ASIC1a ion channel” (eLife, 2021).

For experiment [1], the target named is T1, hASIC1a comprising amino acids 12–478 with a Strep Tag II in the N-terminus (human, UniProt P78348-2).
T1 construct: human acid-sensing ion channel 1a (ASIC1a), residues 12-478 (50 a.a. carboxyl terminal deletion); Trimer in the cryo-EM structure; also called human ASIC1a; recombinant hASIC1a protein; source: HEK293F (FreeStyle 293 F) cells, transfected (pcDNA3.1); crude membranes, solubilised in DDM, purified (Strep Tactin XT, SEC); not shown: Strep Tag II, N-terminal, kept
The experiment in a line: SPR; Biacore S200; hASIC1a amine-coupled to a CM5 chip (diluted in sodium acetate pH 5.0, 0.05% DDM); Nb.C1 injected at 0.41-100 nM, 30 µL/min; association 100 or 300 s, dissociation 300 or 3600 s; two protein preparations; global fits to association time courses. To be noted: both partners purified.

Experiment [2] concerns the target T1, hASIC1a comprising amino acids 12–478 …. The experiment in a line: SEC; purified Nb.C1 added to crude membranes of 293 F cells expressing Strep-tagged hASIC1a (4°C, 3 hr) before solubilisation with 1% DDM; Strep Tactin XT affinity purification, then Superdex 200 Increase; peak run on Coomassie-stained SDS-PAGE. The note with it: one partner purified.
Another experiment addresses T2, human ASIC1a-Flag (Homo sapiens, ASIC1a (528 aa isoform), UniProt P78348-2).
T2 construct: human acid-sensing ion channel 1a (ASIC1a); this molecule is used for them; also called hASIC1a; hASIC1a-Flag; source: HEK293T / HEK-293 cells, transfected (pcDNA3.1), on cells
Description: immunostaining of cells or tissue; chase: live HEK293 cells transfected with hASIC1a-Flag incubated with 10 nM Nb.C1-HA for 30 min at 18°C, washed, followed for 0-4 hr with a wash each hour, then fixed; Nb.C1 fluorescence normalised to time 0; koff estimated from the lack of decay. The note with it: one partner purified.

For a further experiment, the target named is T3, chicken ASIC1-Flag (Gallus gallus, ASIC1, UniProt Q1XA76).
T3 construct: chicken acid-sensing ion channel 1 (cASIC1); also called cASIC1; source: transfected cells, on cells
Description: immunostaining of cells or tissue; transfected cells on coverslips incubated with Nb (1 nM, 1 hr, on ice) in the medium, washed, fixed, permeabilized; Nb detected by anti-HA, channel by anti-Flag; confocal microscopy. To be noted: one partner purified.

For a further experiment, the target named is T4, mouse ASIC2a-Flag (Mus musculus, ASIC2a (512 aa isoform), UniProt Q925H0-1).
T4 construct: mouse acid-sensing ion channel 2a (ASIC2a); also called mASIC2a; source: transfected cells, on cells
The experiment is described as above. To be noted: one partner purified.

In the next experiment the target is T5, mouse ASIC3-Flag (Mus musculus, ASIC3, UniProt Q6X1Y6).
T5 construct: mouse acid-sensing ion channel 3 (ASIC3); also called mASIC3; source: transfected cells, on cells
Described as above. To be noted: one partner purified.

For a further experiment, the target named is T6, mouse ASIC1a-Flag (Mus musculus, ASIC1a, UniProt Q6NXK8-1).
T6 construct: mouse acid-sensing ion channel 1a (ASIC1a); also called mASIC1a; mASIC1; source: transfected cells, on cells
The experiment is described as above. To be noted: one partner purified.

For experiment [3], the target named is T1, hASIC1a comprising amino acids 12–478 …. Description: SPR + immunostaining of cells or tissue; equilibrium constant worked out from the smallest kon of the SPR (purified, immobilised hASIC1a) and the upper limit of koff from the live-cell chase (hASIC1a on HEK293 cells). To be noted: one partner purified.

T5 sequence (Q6X1Y6 whole entry): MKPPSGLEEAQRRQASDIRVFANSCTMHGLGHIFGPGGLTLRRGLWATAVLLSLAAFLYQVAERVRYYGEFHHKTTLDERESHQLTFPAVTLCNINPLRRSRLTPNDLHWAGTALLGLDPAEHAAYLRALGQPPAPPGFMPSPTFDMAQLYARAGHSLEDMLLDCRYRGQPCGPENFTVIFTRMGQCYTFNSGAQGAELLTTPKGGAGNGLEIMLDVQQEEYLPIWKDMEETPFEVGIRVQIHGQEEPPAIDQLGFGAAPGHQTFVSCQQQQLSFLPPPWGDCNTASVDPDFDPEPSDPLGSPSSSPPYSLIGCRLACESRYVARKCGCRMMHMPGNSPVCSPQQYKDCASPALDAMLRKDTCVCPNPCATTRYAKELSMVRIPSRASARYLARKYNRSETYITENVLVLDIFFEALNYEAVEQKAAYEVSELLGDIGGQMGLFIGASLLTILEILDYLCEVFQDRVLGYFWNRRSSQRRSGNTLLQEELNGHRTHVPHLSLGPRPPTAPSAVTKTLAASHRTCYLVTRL
T4 sequence (Q925H0 whole entry, canonical isoform): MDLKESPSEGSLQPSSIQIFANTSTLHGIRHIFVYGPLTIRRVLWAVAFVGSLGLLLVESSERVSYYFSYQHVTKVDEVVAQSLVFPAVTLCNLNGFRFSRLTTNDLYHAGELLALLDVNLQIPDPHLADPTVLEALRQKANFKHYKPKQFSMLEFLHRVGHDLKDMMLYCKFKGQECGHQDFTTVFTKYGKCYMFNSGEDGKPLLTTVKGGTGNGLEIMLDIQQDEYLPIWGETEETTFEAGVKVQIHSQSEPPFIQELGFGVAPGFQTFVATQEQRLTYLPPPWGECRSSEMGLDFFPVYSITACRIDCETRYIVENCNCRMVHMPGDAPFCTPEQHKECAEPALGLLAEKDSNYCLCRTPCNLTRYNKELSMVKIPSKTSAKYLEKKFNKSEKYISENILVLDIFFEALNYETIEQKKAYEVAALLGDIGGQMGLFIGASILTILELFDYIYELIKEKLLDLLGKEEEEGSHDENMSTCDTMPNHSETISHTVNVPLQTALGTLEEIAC

B1: Nb.C1 (VHH)
VHH: QVQLVESGGGLVQPRGSLRLSCAASGFTFSRAAMSWYRQAPGKEREMVSTIGSFGVSTNYSDSVKGRFTISRDNAKNTVYLHMNSLKPEDTAVYYCNARYRSSYPWGQGTQVTVSS
notes: alpaca VHH selected by phage display against hASIC1a; Expressed from the phagemid pADL-22c; also called Nb.1C; Nb.C1-HA; source: E. coli WK6, periplasm, purified (Ni-NTA); not shown: HA, C-terminal, kept
With B1, the kon in experiment [1] lay within 68000 to 220000 M⁻¹ s⁻¹. In addition, the “stoichiometry N” value in experiment [2] was determined as 1. The koff with human ASIC1a-Flag is ≤ 1.4e-05 s⁻¹. In addition, the binding result in the experiment with chicken ASIC1-Flag, with mouse ASIC2a-Flag, with mouse ASIC3-Flag and with mouse ASIC1a-Flag was “no binding (tested: 1 nM)” in each case. Also, the Kd in experiment [3] was ≤ 0.2 nM.
